Reference: patent US12018084B2, “Anti-CXCR2 antibodies and uses thereof” (Cephalon LLC, priority 2018, dated 2024)
Residue numbers refer to the chain shown, from its start.

T1: Human CXCR2 (Homo sapiens, UniProt P25025)
T1 sequence (P25025 1-360): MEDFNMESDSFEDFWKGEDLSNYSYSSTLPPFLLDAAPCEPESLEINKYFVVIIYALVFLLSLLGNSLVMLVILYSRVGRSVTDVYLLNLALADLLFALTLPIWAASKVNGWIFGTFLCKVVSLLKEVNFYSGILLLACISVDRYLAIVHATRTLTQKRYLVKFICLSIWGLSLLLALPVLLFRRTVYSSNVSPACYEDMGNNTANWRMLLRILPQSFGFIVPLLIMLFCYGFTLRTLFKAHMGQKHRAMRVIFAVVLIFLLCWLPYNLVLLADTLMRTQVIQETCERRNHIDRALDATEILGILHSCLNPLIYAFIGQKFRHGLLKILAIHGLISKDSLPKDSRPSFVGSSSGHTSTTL

B1: BKO-4A8: parental anti-CXCR2 antibody, VH SEQ ID NO: 17, VL SEQ ID NO: 18 (antibody, V domains shown)
VH: EVQLLESGGGLVQPGGSLRLSCAASGFTFSSSTMSWVRQAPGKGLEWVSAISGRGRNTYYADSVKGRFTISRDNSRNTLYLQMNSLRAEDTAVYYCAIQMGYWGQGILVTVSS
VL: QSALTQPPSASGSPGQSVTISCIGTSSDVGGYNYVSWYQQHPDKAPKLMIYEVNKRPSGVPDRFSGSKSGNTASLTVSGLQAEDEADYYCSSYAGNNNFGVFGGGTKLTVL
modifications: BKO_4A8_VH; BKO_4A8_VL
B2: 101c: VH SEQ ID NO: 108, VL SEQ ID NO: 110; renamed BKO-4A8-101c (antibody, V domains shown)
VH: B1 VH with M34Q, A40P, N57S, R76K, M100A
VL: B1 VL with D43G, N54S, N96S
modifications: 4A8 VH Variant 101 M34Q_A40P_N56S_R75K_M96A; 4A8 VL variant c D41G_N52S_N94S
notes: renamed BKO-4A8-101c

Tests used:
Human CXCR2 [1] = molecular target: T1, Human CXCR2; test: cELISA of hybridoma supernatants on cells transfected with human CXCR2; type: binding; set-up: host or cells: Expi293F cells, vector pTT5; conditions: hybridoma supernatant; fluorescence units relative to positive control (100%)
Procedure: To generate hybridomas which produced monoclonal antibodies to human CXCR2, splenocytes and/or lymph node cells from animals with the highest anti-CXCR2 titres were isolated and fused to mouse myeloma cells (ATCC, CRL-1580). Cells were plated at approximately 1×10^5 cells/mL in flat bottom microtiter plates, followed by a two week incubation in selective medium (10% FCS and 1×HAT (Sigma)). Hybridomas were expanded by serial passage through four media changes in 96-well plates (96-well stages 1 to 4), then, where required, expanded into T25 and T75 flasks. […] Bound antibodies were detected using a goat anti-rat IgG-HRP (Southern Biotech, #3030-05) secondary antibody.
A panel of hybridomas was generated using lymph nodes and spleen cells from the transgenic rats engineered to express human variable region sequences. A cellular ELISA (cELISA) was used to detect human CXCR2 binding activity in supernatants taken during the expansion process for the hybridomas (Table 5). Hybridomas that retained expression of antibodies that bound CXCR2 after several passages were selected for DNA sequencing.

cynomolgus monkeys = test: LPS induced acute lung inflammation in cynomolgus monkey; type: in vivo
Procedure: Biologics naïve (i.e. not previously administered exogenous biologics) male cynomolgus monkeys were randomized into groups receiving vehicle or the anti-CXCR2 antibody BKO-4A8-101c administered by intravenous administration at a dose of 1 mg/kg on days 0, 14, and 28. One hour post-treatment of test antibodies on day 0, animals were exposed to aerosolized bacterial lipopolysaccharide (LPS) by inhalation of 20 μg/L for 5 mins (total dose 20 μg/kg). This is a well-established model of acute lung inflammation. Inflammatory responses were characterized at 24 hours after LPS exposure by total and differential cell counts of bronchoalveolar lavage fluid of the left lung and compared to matched counts from naïve animals at pre-treatment day 14. Blood was collected at various time points for differential cell count and serum collected for pharmacokinetic analysis.

Human CXCR2 [2] = molecular target: T1, Human CXCR2; test: Calcium flux assay, HTS002C-CHEMISCREEN human CXCR2 calcium-optimized cell line; type: cell-based
Procedure: One of the signaling pathways downstream of CXCR2 activation that has a role in cell chemotaxis is characterized by calcium mobilization (flux). The ability of BKO-4A8-101c to inhibit human CXCR2 ligand-induced calcium flux was tested in the commercially available HTS002C-CHEMISCREEN™ human CXCR2 chemokine receptor calcium-optimized cell line.
The Fluo-4 NW calcium assay kit (Life Technologies) was used according to manufacturer's protocol for in-cell measurement of calcium mobilization, which was read using a FLIPR Tetra high-throughput cellular screening system (Molecular Devices). The peak response minus the basal response from each well was used to determine inhibition dose response curves fitting a four-parameter logistic equation and IC50 values.

[3] = 1 mg/kg intravenous days 0, 14, 28

Molecule | Human CXCR2 % Positive (Human CXCR2 [1]) | LPS-induced pulmonary neutrophilia (cynomolgus monkeys; 1 mg/kg intravenous 1 hour before LPS, BAL 24 hours after LPS) | blood neutrophil counts following repeat dosing (cynomolgus monkeys; [3]) | tolerability, body weight (cynomolgus monkeys; [3]) | CXCL1 Maximal Inhibition % (Human CXCR2 [2]; CXCL1 at EC50) | CXCL8 Maximal Inhibition % (Human CXCR2 [2]; CXCL8 at EC50) | Maximal Inhibition % Mean (Human CXCR2 [2]; Hu CXCL1) | Maximal Inhibition % Mean (Human CXCR2 [2]; Hu CXCL2) | Maximal Inhibition % Mean (Human CXCR2 [2]; Hu CXCL3) | Maximal Inhibition % Mean (Human CXCR2 [2]; Hu CXCL5) | Maximal Inhibition % Mean (Human CXCR2 [2]; Hu CXCL6) | Maximal Inhibition % Mean (Human CXCR2 [2]; Hu CXCL7) | Maximal Inhibition % Mean (Human CXCR2 [2]; Hu CXCL8)
B1 | 110% | – | – | – | – | – | – | – | – | – | – | – | –
B2 | – | markedly inhibited | did not induce measurable changes | well tolerated with no loss in body weight | 93% | 9% | 91% | 88% | 52% | 81% | 81% | 43% | 9%
